The supplement of paper PMC10567573

B1: NECAB1 (parent)
chain: FSPNSPQFNVSGPGLLEEDNQWMT

Variants of: B1
Assay: protein stability index of a GFP-peptide fusion (GPS, HEK-293T) (PSI 1-6); higher = more stable
Details: c terminus: a fixed tail appended
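Further: lentivirally expressed fusions sorted by FACS into six bins by GFP to DsRed ratio, PSI derived from sequencing read proportions per bin multiplied by bin number.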

Protein stability index, by site and new letter:
Q7: R 2.07
P6: A 2.95, H 2.14, C 2.26, V 2.56, Y 1.92, K 2.5, E 3.88, R 2.05, S 2.62, W 4.26, I 2.34, L 2.51, T 2.86, D 2.82, N 2.56, F 2.28, Q 2.48, G 2.34, M 2.03
P3: G 2.2, E 3.71, R 2.88, F 2.59, C 2.33, K 3.11, Q 3.26, L 2.87, M 3.22, A 3.26, I 3.33, W 2.04, D 2.24, T 3.05, Y 2.62, S 2.68, H 3.17, N 2.76, V 2.88
N9: G 3.23, Y 3.54, E 3.77, C 2.13, L 2.12, T 2.62, W 2.41, R 2.32, D 3.67, M 2.42, P 3.06, Q 2.67, V 2.09, K 2.84, S 2.84, A 2.35, H 2.22, I 2.05
N4: W 2.25, S 2.89, D 3.79, Y 2.33, H 2.53, P 3.53, E 3.59, I 2.67, C 2.26, Q 2.8, R 2.82, K 2.98, A 3.25, G 2.53, V 3.03, F 2.4, L 2.64, M 2.45, T 3.2
F8: H 3.77, E 4.44, T 3.5, L 3.04, Y 3.43, K 3.78, R 3.65, N 4.29, A 4.17, I 3.26, V 3.61, W 1.43, Q 3.79, M 3.65, S 4, D 4.15, C 3.42, P 3.47, G 3.83
V10: R 3.38, N 3.68, D 4.09, W 1.87, H 3.63, E 4.16, Y 2.89, T 2.89, I 3.09, Q 3.32, C 2.42, F 2.28, K 2.94, M 3.33, G 2.92, A 3.5, S 3.19, P 3.16, L 2.74
S2: E 4.58, H 2.17, R 3.65, G 2.08, M 3.39, T 2.23, P 2.47, D 4.21, V 2.66, Y 3.49, F 3.06, I 1.76, C 2.63, L 3.37, K 3.63, Q 2.95, W 2.58, A 1.79, N 3.28
F1: G 4.4, A 4.01, Y 3.25, S 4.75, K 4.43, T 4.11, I 4.33, Q 4.7, H 4.23, R 4.33, C 3.13, D 4.53, W 3.85, L 4.55, E 4.79, V 4.34, P 4.51, N 4.63, M 4.7
S11: E 3.4, L 2.91, I 2.9, A 3.02, H 2.5, D 3.73, K 2.44, Q 3.09, C 2.54, R 2.62, F 2, M 2.16, G 2.76, P 3.19, N 3.31
